From US20050037967A1 (RESEARCH DEVELOPMENT FOUNDATION, published 2005)

How the values were obtained:
[1] = molecular target: human FLT-1 receptor (VEGFR-1) on PAE/FLT-1 cells (human) (UniProt P17948); assay: cell-based or functional assay
FLK-1 on PAE/FLK-1 cells = assay: cell-based or functional assay
[2] = molecular target: human kinase domain receptor (KDR, VEGFR-2) on cells (human) (UniProt P35968); assay: cell-based or functional assay
[3] = molecular target: Flt-1 on osteoclast precursor cells (RAW 264.7 cells and mouse bone marrow-derived monocytes) (mouse) (UniProt P35969); assay: cell-based or functional assay
[4] = molecular target: KDR/Flk-1 on adult bovine aortic arch-derived endothelial cells (ABAE) (bovine); assay: cell-based or functional assay
[5] = molecular target: Flk-1 on murine brain endothelioma bEnd.3 cells (mouse) (UniProt P35918); assay: cell-based or functional assay
[6] = molecular target: T1, soluble mouse Flk-1, purified and biotinylated, expressed in Sf9 cells (mouse, UniProt P35918 20-762); assay: ELISA, biotinylated soluble mouse Flk-1 on NeutrAvidin-coated plates; detection with 2C3
T1 construct: Captured on NeutrAvidin-coated plates; Only 'soluble' is said of the construct; also called biotinylated mouse flk-1 receptor; flk-1 receptor
T1 sequence (P35918 20-762 limits assumed): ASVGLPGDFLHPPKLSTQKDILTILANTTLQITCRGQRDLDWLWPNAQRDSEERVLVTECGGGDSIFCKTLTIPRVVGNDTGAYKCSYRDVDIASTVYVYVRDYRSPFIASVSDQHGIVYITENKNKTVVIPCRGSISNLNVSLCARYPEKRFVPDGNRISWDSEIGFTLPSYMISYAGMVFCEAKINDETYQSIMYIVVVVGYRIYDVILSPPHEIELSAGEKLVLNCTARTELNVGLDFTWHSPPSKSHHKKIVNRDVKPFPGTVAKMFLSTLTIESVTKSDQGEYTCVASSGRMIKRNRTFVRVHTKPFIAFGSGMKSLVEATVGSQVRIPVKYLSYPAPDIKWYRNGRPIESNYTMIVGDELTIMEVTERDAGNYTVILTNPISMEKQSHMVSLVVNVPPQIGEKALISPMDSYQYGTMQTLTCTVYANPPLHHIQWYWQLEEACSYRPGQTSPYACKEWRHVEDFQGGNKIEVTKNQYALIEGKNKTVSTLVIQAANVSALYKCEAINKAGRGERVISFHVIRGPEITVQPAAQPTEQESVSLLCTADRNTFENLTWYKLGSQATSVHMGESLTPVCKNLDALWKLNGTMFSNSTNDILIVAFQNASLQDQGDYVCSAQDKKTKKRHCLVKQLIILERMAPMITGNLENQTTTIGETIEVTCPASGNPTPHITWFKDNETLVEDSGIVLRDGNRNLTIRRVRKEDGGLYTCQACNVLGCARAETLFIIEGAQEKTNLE

human kinase domain receptor (KDR, VEGFR-2) on cells (human), sequence (P35968 20-1356): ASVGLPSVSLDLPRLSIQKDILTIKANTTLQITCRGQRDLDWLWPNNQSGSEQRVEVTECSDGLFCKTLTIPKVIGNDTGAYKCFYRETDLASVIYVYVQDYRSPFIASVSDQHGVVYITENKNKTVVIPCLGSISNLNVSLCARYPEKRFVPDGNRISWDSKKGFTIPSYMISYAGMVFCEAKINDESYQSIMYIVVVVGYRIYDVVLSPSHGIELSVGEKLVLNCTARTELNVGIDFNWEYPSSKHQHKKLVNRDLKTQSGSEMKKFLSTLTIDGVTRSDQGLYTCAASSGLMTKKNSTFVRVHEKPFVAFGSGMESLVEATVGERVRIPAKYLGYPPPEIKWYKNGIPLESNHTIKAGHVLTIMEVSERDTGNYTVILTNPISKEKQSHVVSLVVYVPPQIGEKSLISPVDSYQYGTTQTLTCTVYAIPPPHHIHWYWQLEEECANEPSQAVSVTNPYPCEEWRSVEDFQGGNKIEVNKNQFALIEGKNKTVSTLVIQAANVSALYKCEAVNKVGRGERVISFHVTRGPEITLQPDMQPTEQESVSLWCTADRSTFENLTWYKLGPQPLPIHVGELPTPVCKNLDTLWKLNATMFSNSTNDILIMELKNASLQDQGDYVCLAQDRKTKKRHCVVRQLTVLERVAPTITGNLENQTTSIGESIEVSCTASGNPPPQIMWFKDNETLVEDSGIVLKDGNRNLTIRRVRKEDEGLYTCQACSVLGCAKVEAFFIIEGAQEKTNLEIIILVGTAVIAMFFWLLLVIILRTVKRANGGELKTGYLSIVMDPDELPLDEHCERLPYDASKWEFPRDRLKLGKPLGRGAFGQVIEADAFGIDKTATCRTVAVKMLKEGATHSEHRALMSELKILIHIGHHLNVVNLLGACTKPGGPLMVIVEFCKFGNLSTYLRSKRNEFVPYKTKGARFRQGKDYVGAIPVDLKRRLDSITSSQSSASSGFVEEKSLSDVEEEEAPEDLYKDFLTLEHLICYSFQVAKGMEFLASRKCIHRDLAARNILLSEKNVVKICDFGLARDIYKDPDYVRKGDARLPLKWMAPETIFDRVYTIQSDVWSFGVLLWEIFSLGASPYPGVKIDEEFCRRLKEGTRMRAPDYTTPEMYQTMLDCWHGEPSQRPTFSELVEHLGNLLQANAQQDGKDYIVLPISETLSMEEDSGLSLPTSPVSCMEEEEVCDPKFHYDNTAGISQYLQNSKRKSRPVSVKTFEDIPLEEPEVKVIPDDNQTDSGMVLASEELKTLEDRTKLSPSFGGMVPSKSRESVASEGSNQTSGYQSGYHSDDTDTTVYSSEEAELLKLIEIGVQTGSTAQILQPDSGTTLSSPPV
FLK-1 on PAE/FLK-1 cells, sequence (P35968 20-1356): as above
human FLT-1 receptor (VEGFR-1) on PAE/FLT-1 cells (human), sequence (P17948 27-1338): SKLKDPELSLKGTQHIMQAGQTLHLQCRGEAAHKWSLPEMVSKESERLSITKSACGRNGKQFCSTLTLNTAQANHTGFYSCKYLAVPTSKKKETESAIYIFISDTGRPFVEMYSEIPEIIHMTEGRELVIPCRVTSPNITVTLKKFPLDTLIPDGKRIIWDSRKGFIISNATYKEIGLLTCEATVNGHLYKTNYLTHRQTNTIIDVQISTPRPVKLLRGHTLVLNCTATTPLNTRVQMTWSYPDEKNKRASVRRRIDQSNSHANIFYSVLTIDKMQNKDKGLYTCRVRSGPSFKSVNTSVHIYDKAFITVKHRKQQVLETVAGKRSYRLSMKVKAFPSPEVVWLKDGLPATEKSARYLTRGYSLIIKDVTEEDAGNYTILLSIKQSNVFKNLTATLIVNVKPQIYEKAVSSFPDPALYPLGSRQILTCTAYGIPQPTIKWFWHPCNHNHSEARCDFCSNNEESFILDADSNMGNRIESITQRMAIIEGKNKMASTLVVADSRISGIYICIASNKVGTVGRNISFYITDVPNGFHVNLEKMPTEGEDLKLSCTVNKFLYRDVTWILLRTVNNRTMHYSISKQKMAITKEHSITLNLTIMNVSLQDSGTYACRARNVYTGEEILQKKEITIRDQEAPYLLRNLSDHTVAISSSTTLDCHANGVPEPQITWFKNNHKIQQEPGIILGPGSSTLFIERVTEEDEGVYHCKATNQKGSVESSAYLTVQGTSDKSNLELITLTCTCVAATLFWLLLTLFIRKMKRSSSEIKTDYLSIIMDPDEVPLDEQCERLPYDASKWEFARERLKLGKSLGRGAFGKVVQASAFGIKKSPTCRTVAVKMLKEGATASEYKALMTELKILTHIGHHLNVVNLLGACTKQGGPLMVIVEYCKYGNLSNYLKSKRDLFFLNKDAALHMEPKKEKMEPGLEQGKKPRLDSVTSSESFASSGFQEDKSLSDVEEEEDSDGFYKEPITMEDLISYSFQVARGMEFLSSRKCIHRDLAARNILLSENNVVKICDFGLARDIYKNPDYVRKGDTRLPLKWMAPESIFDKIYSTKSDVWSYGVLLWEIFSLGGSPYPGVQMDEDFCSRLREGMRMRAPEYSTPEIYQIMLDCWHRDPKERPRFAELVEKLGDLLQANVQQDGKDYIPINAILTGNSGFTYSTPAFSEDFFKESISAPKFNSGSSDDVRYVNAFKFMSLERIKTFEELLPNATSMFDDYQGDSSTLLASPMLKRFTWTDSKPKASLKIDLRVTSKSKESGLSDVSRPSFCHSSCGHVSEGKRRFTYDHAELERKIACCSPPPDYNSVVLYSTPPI
Flk-1 on murine brain endothelioma bEnd.3 cells (mouse), sequence (P35918 20-1345): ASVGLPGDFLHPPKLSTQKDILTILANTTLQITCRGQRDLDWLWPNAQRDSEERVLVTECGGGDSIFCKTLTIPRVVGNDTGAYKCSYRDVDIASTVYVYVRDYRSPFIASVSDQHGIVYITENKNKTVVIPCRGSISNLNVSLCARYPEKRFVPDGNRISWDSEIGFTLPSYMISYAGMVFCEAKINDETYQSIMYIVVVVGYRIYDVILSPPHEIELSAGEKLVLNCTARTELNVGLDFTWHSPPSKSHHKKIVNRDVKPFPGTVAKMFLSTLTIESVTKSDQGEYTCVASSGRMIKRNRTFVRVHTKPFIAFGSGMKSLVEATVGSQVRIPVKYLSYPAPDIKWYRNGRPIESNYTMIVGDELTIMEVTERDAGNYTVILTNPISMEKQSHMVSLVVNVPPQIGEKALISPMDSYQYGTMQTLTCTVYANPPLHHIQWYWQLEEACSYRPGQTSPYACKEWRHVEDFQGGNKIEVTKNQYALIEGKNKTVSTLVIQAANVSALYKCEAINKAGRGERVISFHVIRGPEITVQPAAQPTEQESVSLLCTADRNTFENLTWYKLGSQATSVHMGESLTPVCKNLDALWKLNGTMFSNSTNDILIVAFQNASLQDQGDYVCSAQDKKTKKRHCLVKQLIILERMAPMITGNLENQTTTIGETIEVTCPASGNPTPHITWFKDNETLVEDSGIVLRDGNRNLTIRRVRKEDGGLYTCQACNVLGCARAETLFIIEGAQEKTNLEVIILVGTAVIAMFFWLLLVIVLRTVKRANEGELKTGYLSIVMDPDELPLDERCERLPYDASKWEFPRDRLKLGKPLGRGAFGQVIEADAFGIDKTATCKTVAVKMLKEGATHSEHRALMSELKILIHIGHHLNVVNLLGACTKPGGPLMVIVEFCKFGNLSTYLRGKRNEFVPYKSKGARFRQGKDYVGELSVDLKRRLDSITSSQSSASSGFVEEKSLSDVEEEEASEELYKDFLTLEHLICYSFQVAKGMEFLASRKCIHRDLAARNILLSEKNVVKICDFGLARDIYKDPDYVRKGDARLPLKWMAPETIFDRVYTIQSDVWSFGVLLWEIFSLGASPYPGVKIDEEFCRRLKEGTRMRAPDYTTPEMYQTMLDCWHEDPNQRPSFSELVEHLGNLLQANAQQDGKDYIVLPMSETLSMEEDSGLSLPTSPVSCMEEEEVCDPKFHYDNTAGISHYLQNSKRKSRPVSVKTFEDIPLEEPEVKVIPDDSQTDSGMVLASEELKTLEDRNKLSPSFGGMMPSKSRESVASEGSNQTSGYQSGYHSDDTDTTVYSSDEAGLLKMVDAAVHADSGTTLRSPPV

Q: What does the source list for “GrB/VEGF121 fusion protein (mature granzyme B, G4S tether, VEGF121) (from UniProt P10144 21-247; P15692 27-147)”?
A: clonogenic (colony-forming) assay on PAE/FLT-1 cells [1]: > 100 nM; cytotoxicity on log-phase PAE/FLT-1 cells, XTT, 72 h [1]: > 200 nM; IC50, clonogenic (colony-forming) assay on PAE/FLK-1 cells (FLK-1 on PAE/FLK-1 cells): 20 nM; IC50, cytotoxicity on log-phase PAE/FLK-1 cells, XTT, 72 h (FLK-1 on PAE/FLK-1 cells): 10 nM

Q: Which IC50, cytotoxicity on log-phase PAE/KDR cells, 72 h (bladder tumor comparison experiment) [2] does the source give for “VEGF121/rGel fusion toxin (VEGF121 at the N-terminus, G4S tether, recombinant gelonin) (from UniProt P15692 27-147; P33186 47-297)” here?
A: 1 nM

Q: What about the IC50 for VEGF121/rGel (nM), cytotoxicity, HUVEC (hypoxia) [2] of the same molecule?
A: 700 nM

Q: And the IC50 for VEGF121/rGel (nM), cytotoxicity, HUVEC (normoxia) [2]?
A: 800 nM

Q: What about the IC50 for VEGF121/rGel (nM), cytotoxicity, PAE/KDR (confluent) [2] of the same molecule?
A: 30 nM

Q: What about the IC50 for VEGF121/rGel (nM), cytotoxicity, PAE/KDR (log phase), 72 h [2] of the same molecule?
A: 0.5 nM

Q: What about the Targeting index (ratio of IC50 of rGel to VEGF121/rGel), PAE/KDR (log phase) [2] of the same molecule?
A: 600

Q: And the Targeting index, HUVEC (hypoxia) [2]?
A: 1

Q: And the Targeting index, HUVEC (normoxia) [2]?
A: 1

Q: What about the Targeting index, PAE/KDR (confluent) [2] of the same molecule?
A: 167

Q: And the dose inhibiting tube formation of PAE/KDR cells on Matrigel by 50% [2]?
A: 1 nM

Q: What about the IC50, cytotoxicity on bone marrow-derived monocytes [3] of the same molecule?
A: 10 nM

Q: And the IC50, cytotoxicity on dividing RAW cells [3]?
A: 40 nM

Q: And the IC50 for VEGF121/rGel (nM), cytotoxicity, ABAE (log phase) [4]?
A: 0.059 nM

Q: And the Targeting index, ABAE (log phase) [4]?
A: 8.9

Q: What about the IC50 for VEGF121/rGel (nM), cytotoxicity, PAE/FLT-1 (confluent) [1] of the same molecule?
A: > 5000 nM

Q: What about the IC50 for VEGF121/rGel (nM), cytotoxicity, PAE/FLT-1 (log phase) [1] of the same molecule?
A: 300 nM

Q: And the Targeting index, PAE/FLT-1 (confluent) [1]?
A: < 2

Q: What about the Targeting index, PAE/FLT-1 (log phase) [1] of the same molecule?
A: 1

Q: And the dose inhibiting tube formation of PAE/Flt-1 cells on Matrigel by 50% [1]?
A: 100 nM

Q: And the IC50 for VEGF121/rGel (nM), cytotoxicity, bEnd3 (log phase) [5]?
A: 1 nM

Q: And the Targeting index, bEnd3 (log phase) [5]?
A: 100

Q: And the IC50, cytotoxicity on PAE/FLK-1 cells, XTT, 72 h (FLK-1 on PAE/FLK-1 cells)?
A: 1 nM

B1: native human VEGF121 (ligand)
chain: APMAEGGGQNHHEVVKFMDVYQRSYCHPIETLVDIFQEYPDEIEYIFKPSCVPLMRCGGCCNDEGLECVPTEESNITMQIMRIKPHQGQHIGEMSFLQHNKCECRPKKDRARQEKCDKPRR
notes: mature; also called free VEGF121
Q: Does B1 bind [6]?
A: binds
